The source of these data is patent US20230242662A1.

To fix the notation:
B1: Benchmark (BM) BA-133-00-01 (antibody, V domains shown)
VH: QVQLQESGPGLVKPSETLSLTCTVSGGSVSSYDISWIRQPPGKGLEWIGVIWTDGGTNYNSAFMSRVTISVDTSKNQFSLKLSSVTAADTAVYYCARVYDGYPWFAYWGQGTLVTVSS
VL: DIQMTQSPSSLSASVGDRVTITCRASQGISNYLNWYQQKPGKAPKLLIYYTSSLHSGVPSRFSGSGSGTDFTLTISSLQPEDFATYYCQQYIKLPWTFGGGTKLEIKR
B2: BA-133-04-04 (antibody, V domains shown)
VH: EVQLVESGGGLVQPGGSLRLSCAASGGSVSSYDISWIRQSPSRGLEWLGVIWTDGGTNYNSAFMSRFTISRDDSKNTAYLQMNSLKTEDTAVYYCERVYDGYPWFAYWGQGTLVTVSS
VL: AIQLTQSPSSLSASVGDRVTITCRASQGISNYLNWYLQKPGQSPQLLIYYTSSLHEGVPDRFSGSGSGTDFTLKISRVEAEDVGVYYCQQYIKLPWTFGQGTKVEIK
B3: BAP133-2-03-03-SL (antibody, V domains shown)
VH: B2 VH
VL: B2 VL with E56S
B4: BA-133-04-02 (antibody, V domains shown)
VH: B2 VH
VL: B2 VL with S30A, E56S
B5: BA-133-04-01 (antibody, V domains shown)
VH: B2 VH
VL: B2 VL with G28W, E56S
B6: BA-133-04-03 (antibody, V domains shown)
VH: B2 VH
VL: B2 VL with H55F, E56S
B7: BAP133-2-02-12 (antibody, V domains shown)
VH: B2 VH
VL: AIQLTQSPSSLSASVGDRVTITCRALQGISNYLNWYQQKPGKAPKLLIYYTSSLHSGVPSRFSGSGSGTEFTLTISSLQPDDFATYYCQQYIKLPWTFGQGTKVEIK

Changes are numbered by the printed parent chain.

The target in the first experiment is human CD46 expressed on 293 cells (human) (UniProt P15529). Briefly: FACS, 293 cells expressing human CD46, pH 6.0.
What is called EC50 is the concentration giving half of the maximal effect. On to B1, for which the EC50 worked out at 0.147 µg/mL.
For B2, the EC50 turned out to be 0.241 µg/mL.
As to B3, the EC50 is 0.336 µg/mL.
On to B4, for which the EC50 came to 0.32 µg/mL. The EC50 values of the last two molecules are within 1.5-fold of each other.
Turning to B5, the EC50 amounted to 0.324 µg/mL. This EC50 and that of the molecule before are within 1.5-fold of each other.
In turn, B6 yielded an EC50 of 0.147 µg/mL.
Regarding B7, the EC50 was determined as 0.676 µg/mL.

The target of a further experiment is CD46 on Colo205 cells (human) (UniProt P15529). Briefly: FACS, Colo205 cells that express CD46; EC50 at pH 7.4 over EC50 at pH 6.0. For orientation: In flow cytometry, cells or beads pass a laser one at a time.
Consider B1, for which the Ratio (pH 7.4/6.0) was 2.6.
Same read-out and setting: the value for B2 was 3.9; that for B3 was 4.4.
For the molecule B4, the Ratio (pH 7.4/6.0) is 4.2.
For the molecule B5, the Ratio (pH 7.4/6.0) was determined as 4.6.
Same read-out and setting: the value for B6 was 9.7.
In the case of B7, the Ratio (pH 7.4/6.0) was 5.2.

For a further experiment, the target named is recombinant human CD46 antigen (human) (UniProt P15529). Briefly: ELISA, coated human CD46; EC50 at pH 7.4 over EC50 at pH 6.0.
For the molecule B1, the ratio (ph 7.4/pH 6.0) came to 1.31.
In the case of B2, the ratio (ph 7.4/pH 6.0) is 3.63.
Consider B3, for which the ratio (ph 7.4/pH 6.0) amounted to 3.23.
With B4, the ratio (ph 7.4/pH 6.0) turned out to be 3.8.
On the same count and under the same terms, the value for B5 was 3.46; that for B6 was 2.23; that for B7 was 7.02.

For another experiment, the target named is CD46 on Colo205 cells (human) (UniProt P15529). The experiment in a line: FACS, Colo205 cells that express CD46, pH 7.4.
Take B1: the EC50 turned out to be 0.513 µg/mL.
The molecule B2 showed an EC50 of 0.96 µg/mL.
B3 yielded an EC50 of 1.48 µg/mL.
With B4, the EC50 is 1.57 µg/mL. This EC50 and that of the molecule before are within 1.5-fold of each other.
With B5, the EC50 worked out at 1.66 µg/mL. The EC50 values of the last two molecules are within 1.5-fold of each other.
Regarding B6, the EC50 came to 1.47 µg/mL.
For B7, the EC50 came out at 3.63 µg/mL.

Another experiment concerns the target human CD46 expressed on 293 cells (human) (UniProt P15529). Briefly: FACS, 293 cells expressing human CD46, pH 7.4.
The molecule B1 registered an EC50 of 0.368 µg/mL.
Regarding B2, the EC50 came out at 0.647 µg/mL.
In the case of B3, the concentration giving a half-maximal response (EC50) worked out at 0.748 µg/mL.
Still for that read-out and setting: the value for B4 was 1.09 µg/mL; that for B5 was 1.34 µg/mL.
B6 displayed an EC50 of 0.427 µg/mL.
B7: the EC50 is 2.23 µg/mL.

The target is the same in another experiment. The experiment in a line: FACS, 293 cells expressing human CD46; EC50 at pH 7.4 over EC50 at pH 6.0.
Consider B1, for which the Ratio (pH 7.4/6.0) was 2.5.
Still for that read-out and setting: the value for B2 was 2.7.
On the same count and under the same terms, the value for B3 was 2.2; that for B4 was 3.4; that for B5 was 4.1.
Turning to B6, the Ratio (pH 7.4/6.0) worked out at 2.9.
As for B7, the Ratio (pH 7.4/6.0) is 3.3.

The target of another experiment is CD46 on Colo205 cells (human) (UniProt P15529). The experiment in a line: FACS, Colo205 cells that express CD46, pH 6.0.
For the molecule B1, the EC50 worked out at 0.201 µg/mL.
B2 came in with an EC50 of 0.246 µg/mL.
On the same count and under the same terms, to B3 belongs 0.341 µg/mL; to B4, 0.371 µg/mL.
As for B5, the EC50 is 0.36 µg/mL.
Turning to B6, the EC50 worked out at 0.151 µg/mL.
In turn, B7 returned a 50% effective concentration (EC50) of 0.704 µg/mL.

A further experiment concerns the target recombinant human CD46 antigen (human) (UniProt P15529). Briefly: pH range ELISA (pH 5.5 to 7.4), coated human CD46. On the technique in general: An ELISA detects its analyte on a solid surface through an enzyme-linked reagent.
B2: the pH inflection point is 6.7 pH.
In the case of B3, the pH inflection point was found to be 6.8 pH.
Regarding B4, the pH inflection point came to 6.64 pH.
On the same count and under the same terms, to B5 belongs 6.61 pH; to B7, 6.58 pH.

Another experiment addresses human CD46 expressed on 293 cells (human) (UniProt P15529). The experiment in a line: cell-based or functional assay.
For B1, the IC50 of in vitro cell killing of 293 cells expressing human CD46, pH 6.0 (test article ADC, CellTiter-Glo) worked out at 15.8 ng/mL; the IC50 of in vitro cell killing of 293 cells expressing human CD46, pH 7.4 (test article ADC, CellTiter-Glo) worked out at 23.6 ng/mL; the Ratio (pH 7.4/6.0) of the killing IC50 on 293 cells expressing human CD46 is 1.5.
Turning to B2, the IC50 of in vitro cell killing of 293 cells expressing human CD46, pH 6.0 (test article ADC, CellTiter-Glo) worked out at 13.7 ng/mL; the IC50 of in vitro cell killing of 293 cells expressing human CD46, pH 7.4 (test article ADC, CellTiter-Glo) stood at 39.9 ng/mL; the Ratio (pH 7.4/6.0) of the killing IC50 on 293 cells expressing human CD46 stood at 2.91.
On the same counts, the results for B3 are 20.6 ng/mL, 90.4 ng/mL and 4.38.

The next experiment has as its target CD46 on Colo205 cells (human) (UniProt P15529). The experiment in a line: cell-based or functional assay.
For B1, the IC50 of inhibition (cytotoxicity) of Colo205 cells that express CD46, pH 6.0 (test article ADC, CellTiter-Glo) turned out to be 4.91 ng/mL; the IC50 of inhibition (cytotoxicity) of Colo205 cells that express CD46, pH 7.4 (test article ADC, CellTiter-Glo) is 11.6 ng/mL; the Ratio (pH 7.4/6.0) of the cytotoxicity IC50 on Colo205 cells is 2.37.
As to B2, the IC50 of inhibition (cytotoxicity) of Colo205 cells that express CD46, pH 6.0 (test article ADC, CellTiter-Glo) turned out to be 6.58 ng/mL; the IC50 of inhibition (cytotoxicity) of Colo205 cells that express CD46, pH 7.4 (test article ADC, CellTiter-Glo) turned out to be 56 ng/mL; the Ratio (pH 7.4/6.0) of the cytotoxicity IC50 on Colo205 cells came out at 8.51.
In the case of B3, the IC50 of inhibition (cytotoxicity) of Colo205 cells that express CD46, pH 6.0 (test article ADC, CellTiter-Glo) amounted to 33.3 ng/mL; the IC50 of inhibition (cytotoxicity) of Colo205 cells that express CD46, pH 7.4 (test article ADC, CellTiter-Glo) came out at 253 ng/mL; the Ratio (pH 7.4/6.0) of the cytotoxicity IC50 on Colo205 cells amounted to 7.6.
